Test results: article PMC3634583

Assays:
[1] = Western blot of 293T lysate, 8 kDa BNP form; settings: glycan lost; control: wild-type pre-proBNP
Western blot = settings: glycan lost; control: wild-type pre-proBNP

## proBNP1-108 (pro-B-type natriuretic peptide): T71A
[1]
  other: proteolytic processing: increases
Western blot
  other: proteolytic processing: increases
